Values joined by “and” are separate entries in the source; they are usually repeats but may differ in a detail not shown here. Identical values can stand only once.
Key:
[1] = biological target: T1, HLA class I histocompatibility antigen, alpha chain E (HLA-E), plate-bound recombinant protein (human, UniProt P13747 22-305, limits assumed); assay: Dual binding ELISA: coat mHLA-E (Novus) as printed, detect Anti-mCD48 (R&D), HRP Anti-Goat HRP
T1 construct: no tag named there; also called recombinant HLA-E protein

[2] = biological target: T2, recombinant human CD28-His (rhCD28-His) (human, UniProt P10747 19-152); assay: ELISA: coat rhCD28-His (Acro), detection printed as Anti-hFc-HRP
T2 construct: also called Human CD28-His protein; recombinant CD28 protein; not shown: His tag
Experimental: To understand whether the CD80 and CD86 parts of the hCD80-Fc-NKG2A and hCD86-Fc-NKG2A chimeric protein can bind CD28, ELISA-based assays were performed. Briefly, recombinant CD28 protein was coated on plates and increasing amounts of the hCD80-Fc-NKG2A, hCD86-Fc-NKG2A, and mCD48-Fc-NKG2A chimeric proteins, and recombinant human CD86-Fc (rhCD86-Fc) protein was added to the plates for capture by the plate-bound recombinant CD28 protein. The mCD48-Fc-NKG2A chimeric protein, and recombinant human CDrhCD86-Fc protein was used as negative and positive controls, respectively. The chimeric proteins bound to the recombinant CD28 protein was detected using an anti-human Fc HRP.

[3] = biological target: T3, anti-mFc IgG antibody (plate-bound); assay: Fc ELISA: coat Anti-mFc (Jax), detect Anti-mFc-HRP (Jax)
T3 construct: also called anti-Fc antibody
Description: A mouse whole IgG was used to generate a standard curve.

[4] = biological target: T4, recombinant mCD47 (mCD47-His) protein (mouse, UniProt Q61735 19-140, limits assumed); assay: sandwich ELISA, anti-NKG2a antibody coated, mCD47-His detection (FIG. 38)
T4 construct: not shown: His tag
T4 sequence (looked up): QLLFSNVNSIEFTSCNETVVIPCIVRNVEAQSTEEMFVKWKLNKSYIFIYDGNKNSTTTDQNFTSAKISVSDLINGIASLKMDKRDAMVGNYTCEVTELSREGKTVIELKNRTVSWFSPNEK
Experimental: Increasing amounts of the mSIRPα-Fc-NKG2A chimeric protein was added and detected using mCD47-His. The CD86-Fc-NKG2A chimeric protein was used as a negative control.
To understand whether the mSIRPα-Fc-NKG2A chimeric protein can binds simultaneously to both anti-NKG2a and CD47, the following ELISA experiment was carried out. Briefly, and anti-NKG2a antibody was coated on plates. Increasing amounts of the mSIRPα-Fc-NKG2A and mCD48-Fc-NKG2A chimeric proteins were added to the plates for capture by the anti-NKG2a antibody. Further, recombinant mCD47 (mCD47-His) protein was added to the plate for capture by mSIRPα-Fc-NKG2A chimeric protein. The binding of the mCD47-His protein was detected using an anti-His HRP antibody.

T1 sequence (P13747 22-305 limits assumed): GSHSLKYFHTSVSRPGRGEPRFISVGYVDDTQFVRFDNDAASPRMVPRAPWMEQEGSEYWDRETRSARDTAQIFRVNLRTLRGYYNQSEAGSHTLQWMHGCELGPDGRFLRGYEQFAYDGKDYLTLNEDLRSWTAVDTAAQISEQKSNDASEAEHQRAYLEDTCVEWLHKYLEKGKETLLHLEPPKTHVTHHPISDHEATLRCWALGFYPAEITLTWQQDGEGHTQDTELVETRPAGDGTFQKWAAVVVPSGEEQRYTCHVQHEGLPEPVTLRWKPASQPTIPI
T2 sequence (P10747 19-152 limits assumed): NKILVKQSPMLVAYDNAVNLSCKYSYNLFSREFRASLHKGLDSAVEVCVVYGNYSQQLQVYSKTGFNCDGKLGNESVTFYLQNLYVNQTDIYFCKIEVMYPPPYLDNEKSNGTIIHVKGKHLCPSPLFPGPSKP

B1: mouse CD48-Fc-NKG2A chimeric protein (Fc fusion)
chain: FQGHSIPDINATTGSNVTLKIHKDPLGPYKRITWLHTKNQKILEYNYNSTKTIFESEFKGRVYLEENNGALHISNVRKEDKGTYYMRVLRETENELKITLEVFDPVPKPSIEINKTEASTDSCHLRLSCEVKDQHVDYTWYESSGPFPKKSPGYVLDLIVTPQNKSTFYTCQVSNPVSSKNDTVYFTLPCDLARSVPRDCGCKPCICTVPEVSSVFIFPPKPKDVLTITLTPKVTCVVVDISKDDPEVQFSWFVDDVEVHTAQTQPREEQFNSTFRSVSELPIMHQDWLNGKEFKCRVNSAAFPAPIEKTISKTKGRPKAPQVYTIPPPKEQMAKDKVSLTCMITDFFPEDITVEWQWNGQPAENYKNTQPIMDTDGSYFVYSKLNVQKSNWEAGNTFTCSVLHEGLHNHHTEKSLSHSPGIIEGRMDTPYTEAKAQINSSMTRTHRDINYTLSSAQPCPHCPKEWISYSHNCYFIGMERKSWNDSLVSCISKNCSLLYIDSEEEQDFLQSLSLISWTGILRKGRGQPWVWKEDSIFKPKIAEILHDECNCAMMSASGLTADNCTTLHPYLCKCKFPI
notes: also called mCD48-Fc-NKG2A
EC50 [1]: 537 nM and 381 nM | binding result [2]: no binding (tested: log[Agonist] about 2.7, ug/ml) | EC50 [3]: 0.938 nM and 0.436 nM | binding result [4]: no binding

From patent US20200399344A1 (SHATTUCK LABS, published 2020)
